This is an account of results in patent US20240409645A1 (DUALYX, published 2024).

The target in the test is T1, human IL-2 receptor (IL-2Rα/IL-2Rβ/γc) (human, UniProt P01589 22-272; P14784 27-551; P31785 23-369).
T1 sequence 1: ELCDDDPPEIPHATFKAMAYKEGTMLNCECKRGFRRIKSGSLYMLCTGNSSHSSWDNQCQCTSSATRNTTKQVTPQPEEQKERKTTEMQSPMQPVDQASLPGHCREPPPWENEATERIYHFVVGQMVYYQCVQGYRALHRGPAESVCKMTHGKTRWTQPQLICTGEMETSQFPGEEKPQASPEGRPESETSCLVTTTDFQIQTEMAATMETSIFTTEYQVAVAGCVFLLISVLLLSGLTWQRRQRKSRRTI
T1 sequence 2: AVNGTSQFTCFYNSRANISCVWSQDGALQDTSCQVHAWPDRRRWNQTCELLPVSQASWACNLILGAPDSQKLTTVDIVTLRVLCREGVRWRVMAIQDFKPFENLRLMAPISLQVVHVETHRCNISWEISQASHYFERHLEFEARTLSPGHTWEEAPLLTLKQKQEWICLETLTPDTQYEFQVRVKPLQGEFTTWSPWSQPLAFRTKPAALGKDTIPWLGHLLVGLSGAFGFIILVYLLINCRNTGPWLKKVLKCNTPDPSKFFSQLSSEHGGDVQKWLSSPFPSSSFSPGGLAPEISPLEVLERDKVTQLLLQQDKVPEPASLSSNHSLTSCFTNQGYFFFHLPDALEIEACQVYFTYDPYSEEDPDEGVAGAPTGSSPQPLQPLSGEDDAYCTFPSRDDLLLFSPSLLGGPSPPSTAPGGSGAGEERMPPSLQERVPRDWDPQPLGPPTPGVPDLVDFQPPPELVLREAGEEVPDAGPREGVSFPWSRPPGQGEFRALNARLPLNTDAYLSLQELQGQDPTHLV
T1 sequence 3: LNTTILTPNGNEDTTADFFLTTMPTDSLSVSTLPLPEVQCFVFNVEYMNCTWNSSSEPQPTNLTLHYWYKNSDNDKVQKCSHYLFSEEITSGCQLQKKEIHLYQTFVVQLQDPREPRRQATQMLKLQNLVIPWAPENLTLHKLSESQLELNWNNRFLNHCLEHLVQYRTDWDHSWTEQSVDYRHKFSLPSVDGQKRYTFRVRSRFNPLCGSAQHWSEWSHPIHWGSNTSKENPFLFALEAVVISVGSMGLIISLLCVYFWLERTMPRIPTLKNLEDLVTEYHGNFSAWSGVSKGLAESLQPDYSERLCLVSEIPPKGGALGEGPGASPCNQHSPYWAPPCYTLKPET
Nature of the test: cell-based or functional assay.

B1: DC00085 (other)
chain 1: EVQLVESGGGLVQAGGSLRLSCAASGGSIYTYNMGWFRQAPGKEREFVAGTLWSGGDSVYADFAKGRFTLSRENAKNTLYLQMNSLKPEDTATYYCAIDPLSLTSDWRVDELSSWGKGTLVTVSSDKTHTCPPCPAPEAAGGPSVFLFPPKPKDTLMISRTPEVTCVVVDVSHEDPEVKFNWYVDGVEVHNAKTKPREEQYNSTYRVVSVLTVLHQDWLNGKEYKCKVSNKALGAPIEKTISKAKGQPREPQVYTLPPSRDELTKNQVSLTCLVKGFYPSDIAVEWESNGQPENNYKTTPPVLDSDGSFLLYSKLTVDKSRWQQGNVFSCSVMHEALHNHYTQKSLSLSPGK
chain 2: EVQLVESGGGLVQTGGSLRLSCAASGGTFSRDAMAWFRQVPGKEREFVALISWSGATTNYADSVKGRFAISRDNGKNTVYLQMNRLKPADTAIYYCAADRRPMGSRSYFEPTEYDDWGQGTQVTVSSGGGGSGGGGSGGGGSQVQLVESGGGLVQPGGSLRLSCATSGFTFRNNFMSWVRQAPGKGLEWVSTISYGGESTTYAESVKGRFTISRDNAKNTLYLQMNNLKPEDTAVYYCAKATSYDSIRSGSRGQGTQVTVSSGGGGSGGGGSGGGGSQVQLVESGGGLVQAGGSLTLSCAAPGRTFGTDVVGWFRQAPGKEREFVASISRSGDGIYYDDSVKGRFTISRNNAWNTVNLQMNSLKVEDTAVYYCAAGDGWSTYDYWGQGTQVTVSSGGGGSGGGGSGGGGSDKTHTCPPCPAPEAAGGPSVFLFPPKPKDTLMISRTPEVTCVVVDVSHEDPEVKFNWYVDGVEVHNAKTKPREEQYNSTYRVVSVLTVLHQDWLNGKEYKCKVSNKALGAPIEKTISKAKGQPREPQVYTLPPSRDELTKNQVSLTCLVKGFYPSDIAVEWESNGQPENNYKTTPPVLDSDGSFFLYSRLTVDKSRWQQGNVFSCSVMHEALHNHYTQKSLSLSPGK
Take B1: the “EC50 (nM) pSTAT5, NK, human PBMCs” value is 0.663 nM; the “EC50 (nM) pSTAT5, Treg, human PBMCs” value came out at 0.0313 nM; the “Fold Max signal (% pSTAT5+) Treg/NK” value was determined as 4 fold; the “Max signal (% pSTAT5+), NK” value is 2.19 % pSTAT5+. For the same molecule, the “Max signal (% pSTAT5+), Treg” value turned out to be 8.49 % pSTAT5+ and the “fold EC50 NK/Treg” value was found to be 21 fold.

B2: DC00086 (other)
chain 1: EVQLVESGGGLVQAGGSLRLSCAASGGSIYTYNMGWFRQAPGKEREFVAGTLWSGGDSVYADFAKGRFTLSRENAKNTLYLQMNSLKPEDTATYYCAIDPLSLTSDWRVDELSSWGKGTLVTVSSDKTHTCPPCPAPEAAGGPSVFLFPPKPKDTLMISRTPEVTCVVVDVSHEDPEVKFNWYVDGVEVHNAKTKPREEQYNSTYRVVSVLTVLHQDWLNGKEYKCKVSNKALGAPIEKTISKAKGQPREPQVYTLPPSRDELTKNQVSLTCLVKGFYPSDIAVEWESNGQPENNYKTTPPVLDSDGSFLLYSKLTVDKSRWQQGNVFSCSVMHEALHNHYTQKSLSLSPGK
chain 2: QVQLVESGGGLVQPGGSLRLSCATSGFTFRNNFMSWVRQAPGKGLEWVSTISYGGESTTYAESVKGRFTISRDNAKNTLYLQMNNLKPEDTAVYYCAKATSYDSIRSGSRGQGTQVTVSSGGGGSGGGGSGGGGSQVQLVESGGGLVQAGGSLTLSCAAPGRTFGTDVVGWFRQAPGKEREFVASISRSGDGIYYDDSVKGRFTISRNNAWNTVNLQMNSLKVEDTAVYYCAAGDGWSTYDYWGQGTQVTVSSGGGGSGGGGSGGGGSEVQLVESGGGLVQTGGSLRLSCAASGGTFSRDAMAWFRQVPGKEREFVALISWSGATTNYADSVKGRFAISRDNGKNTVYLQMNRLKPADTAIYYCAADRRPMGSRSYFEPTEYDDWGQGTQVTVSSGGGGSGGGGSGGGGSDKTHTCPPCPAPEAAGGPSVFLFPPKPKDTLMISRTPEVTCVVVDVSHEDPEVKFNWYVDGVEVHNAKTKPREEQYNSTYRVVSVLTVLHQDWLNGKEYKCKVSNKALGAPIEKTISKAKGQPREPQVYTLPPSRDELTKNQVSLTCLVKGFYPSDIAVEWESNGQPENNYKTTPPVLDSDGSFFLYSRLTVDKSRWQQGNVFSCSVMHEALHNHYTQKSLSLSPGK
On to B2, for which the “EC50 (nM) pSTAT5, NK, human PBMCs” value turned out to be 0.187 nM; the “EC50 (nM) pSTAT5, Treg, human PBMCs” value was found to be 0.00441 nM; the “Fold Max signal (% pSTAT5+) Treg/NK” value amounted to 9 fold; the “Max signal (% pSTAT5+), NK” value turned out to be 4.9 % pSTAT5+. The “Max signal (% pSTAT5+), Treg” value came to 44.1 % pSTAT5+ and the “fold EC50 NK/Treg” value turned out to be 42 fold.

B3: DC00082 (other)
chain 1: QVQLVESGGGLVQAGGSLRLSCAASGGTFRTRNMGWFRRAPGKEREFVAAVSWNVDNKLYADSVKGRFTISRDNGRNMVYLQMNSLKPEDTAVYYCAADNIPLSSDMRPTATEYDYWGQGTQVTVSSDKTHTCPPCPAPEAAGGPSVFLFPPKPKDTLMISRTPEVTCVVVDVSHEDPEVKFNWYVDGVEVHNAKTKPREEQYNSTYRVVSVLTVLHQDWLNGKEYKCKVSNKALGAPIEKTISKAKGQPREPQVYTLPPSRDELTKNQVSLTCLVKGFYPSDIAVEWESNGQPENNYKTTPPVLDSDGSFLLYSKLTVDKSRWQQGNVFSCSVMHEALHNHYTQKSLSLSPGK
chain 2: QVQLVESGGGLVQPGGSLRLSCATSGFTFRNNFMSWVRQAPGKGLEWVSTISYGGESTTYAESVKGRFTISRDNAKNTLYLQMNNLKPEDTAVYYCAKATSYDSIRSGSRGQGTQVTVSSGGGGSGGGGSGGGGSEVQLVESGGGLVQTGGSLRLSCAASGGTFSRDAMAWFRQVPGKEREFVALISWSGATTNYADSVKGRFAISRDNGKNTVYLQMNRLKPADTAIYYCAADRRPMGSRSYFEPTEYDDWGQGTQVTVSSGGGGSGGGGSGGGGSQVQLVESGGGLVQAGGSLTLSCAAPGRTFGTDVVGWFRQAPGKEREFVASISRSGDGIYYDDSVKGRFTISRNNAWNTVNLQMNSLKVEDTAVYYCAAGDGWSTYDYWGQGTQVTVSSGGGGSGGGGSGGGGSDKTHTCPPCPAPEAAGGPSVFLFPPKPKDTLMISRTPEVTCVVVDVSHEDPEVKFNWYVDGVEVHNAKTKPREEQYNSTYRVVSVLTVLHQDWLNGKEYKCKVSNKALGAPIEKTISKAKGQPREPQVYTLPPSRDELTKNQVSLTCLVKGFYPSDIAVEWESNGQPENNYKTTPPVLDSDGSFFLYSRLTVDKSRWQQGNVFSCSVMHEALHNHYTQKSLSLSPGK
With B3, the “EC50 (nM) pSTAT5, NK, human PBMCs” value is 0.0227 nM; the “EC50 (nM) pSTAT5, Treg, human PBMCs” value amounted to 0.848 pM; the “Fold Max signal (% pSTAT5+) Treg/NK” value is 2 fold; the “Max signal (% pSTAT5+), NK” value worked out at 2.11 % pSTAT5+. Besides, the “Max signal (% pSTAT5+), Treg” value was determined as 4.57 % pSTAT5+ and the “fold EC50 NK/Treg” value amounted to 27 fold.

B4: DC00083 (other)
chain 1: QVQLVESGGGLVQAGGSLRLSCAASGGTFRTRNMGWFRRAPGKEREFVAAVSWNVDNKLYADSVKGRFTISRDNGRNMVYLQMNSLKPEDTAVYYCAADNIPLSSDMRPTATEYDYWGQGTQVTVSSDKTHTCPPCPAPEAAGGPSVFLFPPKPKDTLMISRTPEVTCVVVDVSHEDPEVKFNWYVDGVEVHNAKTKPREEQYNSTYRVVSVLTVLHQDWLNGKEYKCKVSNKALGAPIEKTISKAKGQPREPQVYTLPPSRDELTKNQVSLTCLVKGFYPSDIAVEWESNGQPENNYKTTPPVLDSDGSFLLYSKLTVDKSRWQQGNVFSCSVMHEALHNHYTQKSLSLSPGK
chain 2: QVQLVESGGGLVQAGGSLTLSCAAPGRTFGTDVVGWFRQAPGKEREFVASISRSGDGIYYDDSVKGRFTISRNNAWNTVNLQMNSLKVEDTAVYYCAAGDGWSTYDYWGQGTQVTVSSGGGGSGGGGSGGGGSEVQLVESGGGLVQTGGSLRLSCAASGGTFSRDAMAWFRQVPGKEREFVALISWSGATTNYADSVKGRFAISRDNGKNTVYLQMNRLKPADTAIYYCAADRRPMGSRSYFEPTEYDDWGQGTQVTVSSGGGGSGGGGSGGGGSQVQLVESGGGLVQPGGSLRLSCATSGFTFRNNFMSWVRQAPGKGLEWVSTISYGGESTTYAESVKGRFTISRDNAKNTLYLQMNNLKPEDTAVYYCAKATSYDSIRSGSRGQGTQVTVSSDKTHTCPPCPAPEAAGGPSVFLFPPKPKDTLMISRTPEVTCVVVDVSHEDPEVKFNWYVDGVEVHNAKTKPREEQYNSTYRVVSVLTVLHQDWLNGKEYKCKVSNKALGAPIEKTISKAKGQPREPQVYTLPPSRDELTKNQVSLTCLVKGFYPSDIAVEWESNGQPENNYKTTPPVLDSDGSFFLYSRLTVDKSRWQQGNVFSCSVMHEALHNHYTQKSLSLSPGK
As for B4, the “EC50 (nM) pSTAT5, NK, human PBMCs” value was 0.496 nM; the “EC50 (nM) pSTAT5, Treg, human PBMCs” value was below 0.1 pM; the “Fold Max signal (% pSTAT5+) Treg/NK” value worked out at 5 fold; the “Max signal (% pSTAT5+), NK” value is 13 % pSTAT5+. Moreover, the “Max signal (% pSTAT5+), Treg” value worked out at 64.1 % pSTAT5+ and the “fold EC50 NK/Treg” value is above 4960 fold.
